# Test results: patent US20160136234A1
# Columns and labels:
# Experiment in all cases: cell-based or functional assay
# [1] = target: CLK3 (h) (human) (UniProt P49761)
# [2] = target: T1, EphA3 (h) (human) (UniProt P29320)
# T1 sequence (looked up): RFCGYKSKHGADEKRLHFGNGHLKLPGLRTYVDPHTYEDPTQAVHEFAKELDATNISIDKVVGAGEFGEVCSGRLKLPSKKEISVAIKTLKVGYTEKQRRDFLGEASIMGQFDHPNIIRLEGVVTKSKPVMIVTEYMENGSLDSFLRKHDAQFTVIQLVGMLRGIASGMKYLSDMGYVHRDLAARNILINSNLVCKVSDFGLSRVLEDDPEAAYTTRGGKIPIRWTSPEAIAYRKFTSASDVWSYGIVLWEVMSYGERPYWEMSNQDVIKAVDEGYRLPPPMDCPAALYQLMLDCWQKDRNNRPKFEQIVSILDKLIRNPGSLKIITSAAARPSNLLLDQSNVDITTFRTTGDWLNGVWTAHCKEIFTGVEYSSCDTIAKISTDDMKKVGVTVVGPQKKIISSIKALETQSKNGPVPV
# [3] = target: EphB3 (h) (human) (UniProt P54753)
# [4] = target: T2, Flt3 (h) (human) (UniProt P36888)
# T2 sequence (looked up): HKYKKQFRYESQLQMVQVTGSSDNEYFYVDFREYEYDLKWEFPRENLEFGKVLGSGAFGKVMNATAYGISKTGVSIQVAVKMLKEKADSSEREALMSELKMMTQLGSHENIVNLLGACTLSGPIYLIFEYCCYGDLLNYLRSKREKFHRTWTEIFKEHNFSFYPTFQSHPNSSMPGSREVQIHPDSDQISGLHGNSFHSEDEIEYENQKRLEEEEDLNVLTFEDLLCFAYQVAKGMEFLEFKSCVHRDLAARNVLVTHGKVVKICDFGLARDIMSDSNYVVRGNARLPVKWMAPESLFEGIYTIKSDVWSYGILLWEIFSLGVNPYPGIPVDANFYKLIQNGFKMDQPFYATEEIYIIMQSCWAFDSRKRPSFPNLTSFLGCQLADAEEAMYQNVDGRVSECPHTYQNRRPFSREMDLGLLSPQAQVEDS
# [5] = target: T3, GCK (h) (human) (UniProt Q12851)
# T3 sequence (looked up): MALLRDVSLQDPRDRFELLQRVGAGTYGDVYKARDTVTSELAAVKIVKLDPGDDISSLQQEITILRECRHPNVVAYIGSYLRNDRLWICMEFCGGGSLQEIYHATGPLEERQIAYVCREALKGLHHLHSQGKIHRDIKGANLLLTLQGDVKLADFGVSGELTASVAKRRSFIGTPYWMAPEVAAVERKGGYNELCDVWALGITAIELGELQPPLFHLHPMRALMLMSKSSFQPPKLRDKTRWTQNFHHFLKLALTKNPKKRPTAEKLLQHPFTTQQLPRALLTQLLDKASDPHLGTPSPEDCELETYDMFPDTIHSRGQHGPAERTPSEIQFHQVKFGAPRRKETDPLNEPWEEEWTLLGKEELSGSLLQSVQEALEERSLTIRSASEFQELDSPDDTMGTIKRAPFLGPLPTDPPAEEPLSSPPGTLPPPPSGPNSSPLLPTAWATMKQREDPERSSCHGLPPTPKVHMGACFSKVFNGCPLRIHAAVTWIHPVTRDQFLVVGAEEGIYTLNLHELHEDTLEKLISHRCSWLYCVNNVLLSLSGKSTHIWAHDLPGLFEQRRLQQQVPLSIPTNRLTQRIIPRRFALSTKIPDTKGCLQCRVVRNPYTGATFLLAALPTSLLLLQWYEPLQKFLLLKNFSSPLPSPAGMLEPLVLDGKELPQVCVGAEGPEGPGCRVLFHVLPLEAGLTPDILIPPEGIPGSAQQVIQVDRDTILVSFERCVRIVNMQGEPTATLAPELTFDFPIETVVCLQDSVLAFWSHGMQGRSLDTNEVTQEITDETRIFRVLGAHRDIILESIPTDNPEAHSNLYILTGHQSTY
# [6] = target: IRR (h) (human) (UniProt P14616)
# [7] = target: MINK (h) (human) (UniProt Q8N4C8)
# [8] = target: MKK7β (h) (human) (UniProt O14733)
# [9] = target: Met(D1246H) (h) (human) (UniProt P08581)
# [10] = target: Mitogen-Activated Protein Kinase-Activated Protein Kinase 3 (human) (UniProt Q16644)
# [11] = target: T4, NEK3 (h) (human) (UniProt P51956)
# T4 sequence (looked up): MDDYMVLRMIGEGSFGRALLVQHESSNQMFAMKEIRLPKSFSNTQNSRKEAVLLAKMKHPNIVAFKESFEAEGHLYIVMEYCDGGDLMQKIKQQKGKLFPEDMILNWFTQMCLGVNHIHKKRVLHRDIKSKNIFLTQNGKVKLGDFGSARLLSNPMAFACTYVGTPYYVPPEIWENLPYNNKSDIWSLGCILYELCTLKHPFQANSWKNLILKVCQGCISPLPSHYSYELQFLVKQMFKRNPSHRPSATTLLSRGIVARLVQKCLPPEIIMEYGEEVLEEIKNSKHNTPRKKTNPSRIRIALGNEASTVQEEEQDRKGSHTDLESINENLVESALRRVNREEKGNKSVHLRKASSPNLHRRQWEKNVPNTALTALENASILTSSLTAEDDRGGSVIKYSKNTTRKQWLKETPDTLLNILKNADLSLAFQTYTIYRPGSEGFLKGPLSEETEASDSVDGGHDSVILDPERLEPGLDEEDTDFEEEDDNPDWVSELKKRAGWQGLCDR
# [12] = target: NEK7 (h) (human) (UniProt Q8TDX7)
# [13] = target: PKBγ (h) (human) (UniProt Q9Y243)
# [14] = target: Pim-3 (h) (human) (UniProt Q86V86)
# IRR (h) (human), sequence (P14616 944-1297 limits assumed): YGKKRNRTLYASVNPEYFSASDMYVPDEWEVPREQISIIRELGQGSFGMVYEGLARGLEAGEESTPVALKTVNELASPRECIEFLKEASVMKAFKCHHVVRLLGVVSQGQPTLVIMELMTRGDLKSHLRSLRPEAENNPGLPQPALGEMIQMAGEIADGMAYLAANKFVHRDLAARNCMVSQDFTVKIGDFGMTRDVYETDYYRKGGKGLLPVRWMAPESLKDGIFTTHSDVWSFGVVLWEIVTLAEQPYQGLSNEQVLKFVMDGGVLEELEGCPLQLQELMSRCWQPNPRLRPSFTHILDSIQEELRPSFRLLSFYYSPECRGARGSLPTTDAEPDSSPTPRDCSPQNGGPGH
# PKBγ (h) (human), sequence (Q9Y243 whole entry): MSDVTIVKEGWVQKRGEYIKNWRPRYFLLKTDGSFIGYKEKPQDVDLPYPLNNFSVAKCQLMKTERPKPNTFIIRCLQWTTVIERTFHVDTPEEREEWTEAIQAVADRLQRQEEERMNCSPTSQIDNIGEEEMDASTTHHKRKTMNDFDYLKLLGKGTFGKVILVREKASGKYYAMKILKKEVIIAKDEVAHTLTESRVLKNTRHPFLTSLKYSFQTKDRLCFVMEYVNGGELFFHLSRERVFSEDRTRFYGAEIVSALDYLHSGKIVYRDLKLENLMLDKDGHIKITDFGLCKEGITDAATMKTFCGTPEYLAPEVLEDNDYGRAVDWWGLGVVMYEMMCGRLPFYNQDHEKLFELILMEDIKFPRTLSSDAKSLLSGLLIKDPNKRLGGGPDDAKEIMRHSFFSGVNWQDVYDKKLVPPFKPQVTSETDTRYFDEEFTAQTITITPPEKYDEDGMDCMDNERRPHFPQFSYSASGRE
# EphB3 (h) (human), sequence (P54753 581-998 limits assumed): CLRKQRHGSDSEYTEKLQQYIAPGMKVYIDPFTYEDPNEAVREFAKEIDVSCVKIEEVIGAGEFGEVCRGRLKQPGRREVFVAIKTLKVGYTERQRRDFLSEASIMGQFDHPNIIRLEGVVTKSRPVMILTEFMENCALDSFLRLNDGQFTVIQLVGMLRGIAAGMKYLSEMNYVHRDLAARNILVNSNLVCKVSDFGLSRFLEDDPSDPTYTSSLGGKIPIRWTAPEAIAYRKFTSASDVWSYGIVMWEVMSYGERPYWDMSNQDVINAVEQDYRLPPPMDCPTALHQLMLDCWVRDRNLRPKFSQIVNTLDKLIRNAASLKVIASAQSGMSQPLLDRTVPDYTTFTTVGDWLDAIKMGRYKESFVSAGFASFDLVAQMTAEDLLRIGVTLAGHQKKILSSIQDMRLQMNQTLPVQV
substance,measurement,setting,value
MMI-0300 (peptide),% activity at 100 µM,[1],61%
same,% activity at 100 µM,[2],6%
same,% activity at 100 µM,[3],62%
same,% activity at 100 µM,[4],84%
same,% activity at 100 µM,[5],70%
same,% activity at 100 µM,[6],8%
same,% activity at 100 µM,[7],48%
same,% activity at 100 µM,[8],100%
same,% activity at 100 µM,[9],125%
same,% activity at 100 µM,[10],3%
same,% activity at 100 µM,[11],92%
same,% activity at 100 µM,[12],84%
same,% activity at 100 µM,[13],20%
same,% activity at 100 µM,[14],80%
